Measurements taken from IntAct's records for PubMed 8670882.

How the values were obtained:
ste20_yeast STE20 = molecular target: T1, ste20_yeast STE20 (UniProt Q03497)
T1 sequence: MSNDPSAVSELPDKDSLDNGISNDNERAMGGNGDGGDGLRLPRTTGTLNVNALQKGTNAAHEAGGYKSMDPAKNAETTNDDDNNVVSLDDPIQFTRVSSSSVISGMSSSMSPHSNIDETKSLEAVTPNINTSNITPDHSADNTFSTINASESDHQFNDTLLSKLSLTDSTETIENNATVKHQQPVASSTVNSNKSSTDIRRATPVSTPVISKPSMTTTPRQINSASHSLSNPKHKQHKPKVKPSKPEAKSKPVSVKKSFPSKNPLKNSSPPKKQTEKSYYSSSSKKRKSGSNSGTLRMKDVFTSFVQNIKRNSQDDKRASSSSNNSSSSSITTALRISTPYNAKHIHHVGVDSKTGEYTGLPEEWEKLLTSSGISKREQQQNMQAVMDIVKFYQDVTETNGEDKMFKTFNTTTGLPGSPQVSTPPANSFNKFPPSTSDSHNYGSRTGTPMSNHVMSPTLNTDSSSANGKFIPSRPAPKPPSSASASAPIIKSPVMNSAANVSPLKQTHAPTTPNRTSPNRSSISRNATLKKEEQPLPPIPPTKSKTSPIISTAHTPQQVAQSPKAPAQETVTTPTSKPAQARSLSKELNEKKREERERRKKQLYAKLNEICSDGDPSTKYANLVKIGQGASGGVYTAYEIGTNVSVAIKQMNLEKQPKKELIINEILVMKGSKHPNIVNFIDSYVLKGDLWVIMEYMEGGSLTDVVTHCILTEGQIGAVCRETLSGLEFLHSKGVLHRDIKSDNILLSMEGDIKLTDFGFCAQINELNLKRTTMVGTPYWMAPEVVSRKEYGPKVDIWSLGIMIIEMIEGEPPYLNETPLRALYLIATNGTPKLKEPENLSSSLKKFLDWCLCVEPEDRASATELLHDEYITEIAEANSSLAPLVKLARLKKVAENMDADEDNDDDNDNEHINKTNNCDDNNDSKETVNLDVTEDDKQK

arfp2_human ARFIP2 = molecular target: T2, arfp2_human ARFIP2 (UniProt P53365)
T2 sequence: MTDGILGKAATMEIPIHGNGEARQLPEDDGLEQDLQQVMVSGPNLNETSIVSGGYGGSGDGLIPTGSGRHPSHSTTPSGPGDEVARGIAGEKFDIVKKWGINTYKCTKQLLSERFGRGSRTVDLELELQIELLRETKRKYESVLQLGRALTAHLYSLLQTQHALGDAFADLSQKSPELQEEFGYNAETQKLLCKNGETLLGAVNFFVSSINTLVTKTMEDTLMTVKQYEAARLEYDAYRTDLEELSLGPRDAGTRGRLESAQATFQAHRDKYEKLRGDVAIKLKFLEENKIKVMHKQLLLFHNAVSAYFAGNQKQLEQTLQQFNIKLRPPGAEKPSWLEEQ

Substance	effect of a mutation on the interaction (ste20_yeast STE20)	effect of a mutation on the interaction (arfp2_human ARFIP2)
Ras-related C3 botulinum toxin substrate 1 (Homo sapiens) (from UniProt P63000) G12V	increasing interaction	
Ras-related C3 botulinum toxin substrate 1 (Homo sapiens) (from UniProt P63000) T35A		decreasing interaction
